Reference: article PMC10458775, “A Combined Plasmonic and Electrochemical Aptasensor Based on Gold Nanopit Arrays for the Detection of Human Serum Albumin”

Molecular target: human serum albumin (HSA) (Homo sapiens, UniProt P02768 25-609)
Experiment: alternating current voltammetry (electrochemical aptasensor); gold nanopit array with 6-MCH; HSA up to 600 uM; LOD 0.08 nM (not a Kd); 10 mM Tris, 150 mM NaCl, 5 mM KCl, pH 7.4, room temperature; 30 min HSA incubation; aptamer immobilized in 10 mM Tris, 1.5 M NaCl, 1 mM MgCl2, pH 7.4
Settings: label: 5' ferrocene

human serum albumin (HSA), sequence (P02768 25-609): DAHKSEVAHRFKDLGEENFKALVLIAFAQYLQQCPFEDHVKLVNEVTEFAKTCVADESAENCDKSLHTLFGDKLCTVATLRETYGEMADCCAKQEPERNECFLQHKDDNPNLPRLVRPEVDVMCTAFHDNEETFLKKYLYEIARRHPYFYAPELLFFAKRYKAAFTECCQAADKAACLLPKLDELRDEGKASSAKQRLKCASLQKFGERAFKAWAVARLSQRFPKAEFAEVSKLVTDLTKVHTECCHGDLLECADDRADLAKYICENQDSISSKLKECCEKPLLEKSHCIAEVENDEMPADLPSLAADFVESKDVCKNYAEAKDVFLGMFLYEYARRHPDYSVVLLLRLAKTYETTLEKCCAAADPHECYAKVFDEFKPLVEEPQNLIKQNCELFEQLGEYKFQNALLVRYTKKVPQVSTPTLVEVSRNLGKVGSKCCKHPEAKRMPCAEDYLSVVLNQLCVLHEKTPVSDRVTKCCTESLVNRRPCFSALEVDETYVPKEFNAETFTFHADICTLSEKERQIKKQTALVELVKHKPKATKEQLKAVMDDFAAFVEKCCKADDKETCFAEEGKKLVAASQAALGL

B1: HSA aptamer (ssDNA)
DNA: GTCTCAGCTACCTTACCGTATGTGGCCCAAAGCGTCTGGATGGCTATGAA
modifications: 3' (CH2)6-SH thiol (disulfide reduced with TCEP), immobilized on gold
binding result: binds
